Data from the supplement of paper PMC9170038.

Tests used:
[1] = system: MS2 coat protein; assay: apparent KD of MS2 coat protein; designed switch direction (-1 OFF switch, 1 ON switch): -1; higher = weaker reporter binding; details: Eterna round: R98
Experimental: (§1)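 RNA-MaP: designed FMN/MS2 RNA switches (84 nt design region) are transcribed on-chip within common flanks and titrated with SNAP-549-labelled MS2 coat protein (about 1-3000 nM) in 100 mM Tris pH 7.5, 80 mM KCl, 4 mM MgCl2, without or with 200 uM FMN. Median apparent KD per design; activation ratio = KD,OFF / KD,ON.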

[2] = system: MS2 coat protein; assay: apparent KD of MS2 coat protein; higher = weaker reporter binding; details: Eterna round: R101
Experimental: as §1

Row | Sequence | apparent KD of MS2 coat protein ([1]; input ligand: FMN 200 uM) [nM] | apparent KD of MS2 coat protein ([1]; input ligand: none) [nM] | apparent KD of MS2 coat protein ([2]; input ligand: FMN 200 uM) [nM] | apparent KD of MS2 coat protein ([2]; input ligand: none) [nM]
1 | AAAAUAAAGGCAGGAUAUACAUGAAUAUAUAAUAUAAUAUAUAAUAUAACAUGAGGAUCACCCAUGUAGAAGGGCCAAAAUAAA [LRO026_Exclusion NG 2] | 88.1 | 46.4 |  | 
2 | AAUAUAAAGAGCUGGUCUCAAAUAACAUGAGGAUCACCCAUGUAGGAUAUCAGCACGAUAAGUGCUGAGAAGGACAUCCAGCUC [Denovo 49] | 18.9 | 15.9 |  | 
3 | GCACUGGAUGUAGGAUAUCAGGACGAUAAGUCCUGAGAAGGACAUGAGGAUCACCCAUGUCCCAAAACCAGUGCAUAUAAUAUA [Denovo Exng1 31] | 19.8 | 14.3 |  | 
4 | GCGCGCGCGUCAGGAUAUACAUGAGGAUCACCCAUGUGUGCGCGCGCGCGCGCGCGCGCGCGCGUGUAGAAGGGACGCUGUCGC [Incredible-Exclusion NG 2] | 20.6 | 14.4 |  | 
5 | UAAAUAGAUCCUAGAGGAUCACCCUAGGAUAUCACCGUCGAGGUGCCAUAAUGGCACCUCGACGGUGAGAAGGAGGUUGAUAAA [#SharedSequence - SLExNG3: 7] (puzzle (switch architecture): Small Loop Exclusion NG 3) |  |  | 19.9 | 11.4
6 | UAUUAUUUGGAGAAGGACAUGAGGAUCACCCAUGUCGCCGGGCCCGGGAAACCGGGCCCGGCCAUGUAGGAUAUCCGGAUGGUA [#This is a good prank 4] (puzzle (switch architecture): Inverted Exclusion NG 2) |  |  | 7.61 | 7.31
7 | UCAGGUCGGGAAGGAUAUCGGCCGCAGAGAGCUCGAGAAGGUCCCGACAUGAGGAUCACCCAUGUUGAAGGAUCCUAACGUGCC [Maonan] | 35.4 | 38.3 |  | 
8 | UUACUCAUGUAAGGAUAUGCAGCCGAAACGGCUGCAGAAGGUACUAUAAUACAUGAGGAUCACCCAUGUAAAAUAAAUAAGGUU (puzzle (switch architecture): Same State NG 1) |  |  | 19.5 | 44.1
